# Article PMC3317225, “MsDpo4—a DinB Homolog from Mycobacterium smegmatis—Is an Error-Prone DNA Polymerase That Can Promote G:T and T:G Mismatches” (Journal of Nucleic Acids, 2012)
# Tests used:
# Experiment in all cases: steady-state primer extension, 6-FAM labelled primer, gel, Lineweaver-Burk
# Format in all cases: biochemical, Mycolicibacterium smegmatis
# [1] = substrate: Nc1ncnc2c1ncn2[C@H]1C[C@H](O)[C@@H](COP(=O)(O)OP(=O)(O)OP(=O)(O)O)O1; conditions: template dT (correct pair T:A), 20 nM DNA T2P1, 1 nM enzyme, Mg2+, pH 8.0, 37°C (given for the primer extension assay), number in parentheses is standard error
# Excerpt: (§1) steady-state primer extension, 6-FAM labelled primer, gel, Lineweaver-Burk on MsDpo4
# [2] = substrate: Cc1cn([C@H]2C[C@H](O)[C@@H](COP(=O)(O)OP(=O)(O)OP(=O)(O)O)O2)c(=O)[nH]c1=O; conditions: template dG (mismatch G:T, misincorporation), 20 nM DNA T1P1, 10 nM enzyme, Mg2+, pH 8.0, 37°C (given for the primer extension assay), number in parentheses is standard error
# Excerpt: as §1
# [3] = substrate: Nc1nc2c(ncn2[C@H]2C[C@H](O)[C@@H](COP(=O)(O)OP(=O)(O)OP(=O)(O)O)O2)c(=O)[nH]1; conditions: template dT (mismatch T:G, misincorporation), 20 nM DNA T2P1, 10 nM enzyme, Mg2+, pH 8.0, 37°C (given for the primer extension assay), number in parentheses is standard error
# Excerpt: as §1
# [4] = substrate: Nc1ccn([C@H]2C[C@H](O)[C@@H](COP(=O)(O)OP(=O)(O)OP(=O)(O)O)O2)c(=O)n1; conditions: template dG (correct pair G:C), 20 nM DNA T1P1, 1 nM enzyme, Mg2+, pH 8.0, 37°C (given for the primer extension assay), number in parentheses is standard error
# Excerpt: as §1
protein,measurement,setting,value
"MsDpo4 (Mycolicibacterium smegmatis MC2 155) (protein, msmeg_1014 in pGEX6P1, expressed as GST-MsDpo4 fusion in bacteria; single-chain Y-family polymerase) MTKWVLHVDLDQFLASVELRRRPDLRGQPVIVGGSGDPSEPRKVVTCASYEAREFGVHAGMPLRAAARRCPDATFLPSDPAAYDEASEQVMGLLRDLGHPLEVWGWDEAYLGADLPDESDPVEVAERIRTVVAAETGLSCSVGISDNKQRAKVATGFAKPAGIYVLTEANWMTVMGDRPPDALWGVGPKTTKKLAAMGITTVADLAVTDPSVLTTAFGPSTGLWLLLLAKGGGDTEVSSEPWVPRSRSHVVTFPQDLTERREMDSAVRDLALQTLAEIVEQGRIVTRVAVTVRTSTFYTRTKIRKLPAPSTDAGQIVDTALAVLDQFELDRPVRLLGVRLELAMDDVPRPAVTAGT",Km,[1],5.5 (1.54) μM
same,Km,[2],165.5 (39.70) μM
same,Km,[3],166.5 (39.01) μM
same,Km,[4],4.3 (0.69) μM
